In patent publication US12534534 (F STAR BETA, dated 2026):
Positions count from the first letter of the chain named. One block for each binder: values may come before it.

Key:
[1] = biological target: human CD137 on DO11.10-hCD137 cells (human, UniProt Q07011 24-255); assay: cell-based or functional assay
[2] = biological target: T1, hCD137-mFc-Avi (human, UniProt Q07011 24-186); assay: SPR, antigens immobilised on CM5 chip, mAb^2 at 1 µM and 1 nM, binding level at end of association
T1 construct: dimer; also called human CD137-mFc-Avi; human CD137-mFc
Description: CD137 belongs to the tumour necrosis factor receptor superfamily (TNFRSF) of cytokine receptors (Moran et al., 2013). To analyse the specificity of the anti-CD137 Fab binding site of the five mAb² molecules, binding of the mAb² to human CD137 and five closely-related human TNFRSF members (TNFRSF1A, TNFRSF1B, GITR, NGFR and CD40) was tested using SPR.
(§1) Flow cell 1 was run as a blank immobilisation. The five FS20-22-49AA/FS30 mAb² were diluted to 1 μM and 1 nM in 1×HBS-EP buffer (GE Healthcare, product code BR100188), allowed to flow over the chip for 3 min and then allowed to dissociate for 4 minutes. A 30-second injection of 10 mM glycine pH 1.5 was used for regeneration. […] Binding levels were determined at the end of the association phase and compared.

[3] = biological target: T1, hCD137-mFc-Avi; assay: ELISA, hCD137-mFc-Avi coated, 100 nM antibody, competitor CD137L-His; normalised to G1/11D4 = 0 and G1/MOR7480.1 = 100; mean of n=2
Description: The following day, plates were washed with PBST (PBS+0.05% Tween20™) and blocked with PBS+1% BSA (Sigma, A3059-500G) for 1 hour at room temperature with agitation. After blocking, the plates were washed again with PBST. A 100 nM dilution of each test antibody was prepared in PBS+1% BSA and added to the CD137-coated plates and incubated for 1 hour at room temperature with agitation. […] The plates were then washed with PBST and then incubated with anti-his secondary antibody (R&D Systems, MAB050H) at a 1 in 1000 dilution in PBS for 1 hour at room temperature with agitation. The plates were then washed with PBST and incubated with TMB detection reagent (Thermo Fisher Scientific, 002023) until the positive control wells turned blue and then the reaction was stopped with the addition of 2N H_2SO_4. Plates were read at 450 nm using the plate reader with Gen5 Software, BioTek. Absorbance values of 630 nm were subtracted from those of 450 nm (Correction). The subtracted absorbance values were plotted vs the log concentration of antibody and the resulting curves were fitted using the log (inhibitor) vs response equation in GraphPad Prism.

[4] = biological target: T1, hCD137-mFc-Avi; assay: cell-based, 100 nM hCD137-mFc-Avi with 200 nM antibody, competitor human CD137L on DO11.10 cells, GMFI normalised to G1/11D4 = 0 and G1/MOR7480.1 = 100; mean of n=2
Description: The cells were washed once in PBS and 100 μl/well of secondary antibody (anti-mouse Fc-488 antibody, Jackson Immuno Research, 115-546-008) diluted 1:1000 in PBS containing 2% BSA was then added and incubated for 30 mins at 4° C. in the dark. The cells were washed once with PBS and resuspended in 100 μl of PBS containing DAPI (Biotium, 40043) at 1 μg/ml. The cells were analysed using a Canto II flow cytometer (BD Bioscience). Dead cells were excluded and the fluorescence in the FITC channel (488 nm/530/30) was measured. […] The data was analysed using a one-way ANOVA test and Tukey's multiple comparisons test using GraphPad Prism.

[5] = biological target: T2, TNFRSF1A-Fc (human, UniProt P19438 30-211, limits assumed); assay: SPR, antigen immobilised on CM5 chip
T2 construct: bought; also called TNFRSF1A (R&D Systems, 372-RI-050/CF); not shown: Fc part of the bought fusion
T2 sequence (looked up): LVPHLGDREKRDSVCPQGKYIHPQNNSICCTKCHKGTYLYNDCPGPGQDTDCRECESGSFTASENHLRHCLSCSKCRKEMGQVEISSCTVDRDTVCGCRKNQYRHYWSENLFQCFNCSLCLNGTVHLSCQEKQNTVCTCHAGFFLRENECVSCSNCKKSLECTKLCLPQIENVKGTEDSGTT
Description: as §1
(§2) Specificity was tested against the same five human TNFRSF members closely-related to CD137 (TNFRSF1A, TNFRSF1B, GITR, NGFR and CD40) plus an additional closely-related TNFRSF member, human DR6 (DR6-Fc; R&D Systems, 144-DR-100), using SPR as described in Example 3.1.

[6] = biological target: T3, TNFRSF1B-Fc (human, UniProt P20333 23-257); assay: SPR, antigen immobilised on CM5 chip
T3 construct: bought; also called TNFRSF1B (R&D Systems, 726-R2-050); not shown: Fc part of the bought fusion
T3 sequence (looked up): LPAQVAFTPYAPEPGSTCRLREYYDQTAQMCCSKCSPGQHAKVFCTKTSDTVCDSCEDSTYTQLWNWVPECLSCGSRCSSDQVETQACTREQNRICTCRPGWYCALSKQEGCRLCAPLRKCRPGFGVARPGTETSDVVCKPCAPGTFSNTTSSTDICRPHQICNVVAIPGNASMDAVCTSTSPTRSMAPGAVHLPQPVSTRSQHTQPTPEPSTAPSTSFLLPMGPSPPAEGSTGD
Description: as §1, §2

[7] = biological target: T4, GITR-hFc-Avi (human, UniProt Q9Y5U5 26-161); assay: SPR, antigen immobilised on CM5 chip
T4 construct: in-house produced; not shown: hFc and Avi part
T4 sequence: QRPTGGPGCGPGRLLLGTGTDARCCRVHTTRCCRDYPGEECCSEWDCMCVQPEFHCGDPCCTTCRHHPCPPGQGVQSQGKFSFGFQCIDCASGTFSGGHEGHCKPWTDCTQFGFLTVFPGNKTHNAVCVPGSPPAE
Description: as §1, §2

[8] = biological target: T5, NGFR-Fc (human, UniProt P08138 29-250); assay: SPR, antigen immobilised on CM5 chip
T5 construct: bought; also called NGFR (R&D Systems, 367-NR-050/CF); not shown: Fc part of the bought fusion
T5 sequence (looked up): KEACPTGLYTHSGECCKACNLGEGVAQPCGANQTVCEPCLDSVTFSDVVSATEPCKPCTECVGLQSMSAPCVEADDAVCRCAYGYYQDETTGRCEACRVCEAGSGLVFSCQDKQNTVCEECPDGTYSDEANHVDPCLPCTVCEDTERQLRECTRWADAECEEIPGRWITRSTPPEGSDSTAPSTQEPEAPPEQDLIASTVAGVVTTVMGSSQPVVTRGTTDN
Description: as §1, §2

[9] = biological target: T6, CD40-mFc (human, UniProt P25942 21-193); assay: SPR, antigen immobilised on CM5 chip
T6 construct: in-house produced; not shown: mFc part
Description: as §1, §2

[10] = biological target: human CD137 on primary human CD8+ T cells (human, UniProt Q07011 24-255); assay: cell-based or functional assay

B1: FS20-22-49AA/FS30-5 variant, Methionine (100D) to I (bispecific antibody, V domains shown)
VH: EVQLLESGGGLVQPGGSLRLNCAASGFTFSSYAMSWVRQAPGKGLEWVSAISGSGGSTYYADSVKGRFTISRDNSKNTLYLQMNSLRAEDTAVYYCARSYDKYWGSSIYSGMDYWGQGTLVTVSS
VL: EIVLTQSPGTLSLSPGERATLSCRASQSVSSSYLAWYQQKPGQAPRLLIYGASSRATGIPDRFSGSGSGTDFTLTISRLEPEDFAVYYCQQYYSYYPVTFGQGTKVEIKR
- DO11.10-hCD137 T cell activation assay EC50 (nM), crosslinked [1]: 4.4 nM

B3: FS20-22-49AA/FS30-5 (bispecific antibody, human IgG1, kappa, L234A L235A, V domains shown)
VH: B1 VH with I108M
VL: B1 VL
notes: also called FS30-5 in mAb^2 format
- DO11.10-hCD137 T cell activation assay EC50 (nM), crosslinked [1]: 4.8 nM
- fold specificity for CD137 over TNFRSF1A, TNFRSF1B, GITR, NGFR and CD40 [2]: ~1000 fold

B4: FS20-22-49AA/FS30-16 (bispecific antibody, human IgG1, kappa, L234A L235A, V domains shown)
VH: EVQLLESGGGLVQPGGSLRLSCAASGFTFSNYAMHWVRQAPGKGLEWVSTIDPTDGATNYADSVKGRFTISRDNSKNTLYLQMNSLRAEDTAVYYCARSKYYTYMQYVALDYWGQGTLVTVSS
VL: B1 VL with Y92G, Y93S, S94R, Y95F, Y96F, V98I
notes: also called FS30-16 in mAb^2 format
- fold specificity for CD137 over TNFRSF1A, TNFRSF1B, GITR, NGFR and CD40 [2]: ~1000 fold

B6: FS20-22-49AA/4420 (bispecific antibody, human IgG1, kappa, L234A L235A, V domains shown)
VH: EVKLDETGGGLVQPGRPMKLSCVASGFTFSDYWMNWVRQSPEKGLEWVAQIRNKPYNYETYYSDSVKGRFTISRDDSKSSVYLQMNNLRVEDMGIYYCTGSYYGMDYWGQGTSVTVSS
VL: DVVMTQTPLSLPVSLGDQASISCRSSQSLVHSNGNTYLRWYLQKPGQSPKVLIYKVSNRFSGVPDRFSGSGSGTDFTLKISRVEAEDLGVYFCSQSTHVPWTFGGGTKLEIKR
notes: anti-OX40 Fcab FS20-22-49AA with the Fab of anti-FITC antibody 4420; IgG1 LALA; also called negative control mAb^2
- % CD137 ligand blocking activity [3]: -0.3%
- % CD137 ligand blocking activity [4]: 2%

B7: FS20-22-49AA/FS30-10 (bispecific antibody, human IgG1, kappa, L234A L235A, V domains shown)
VH: EVQLLESGGGLVQPGGSLRLSCAASGFTFSSYDMSWVRQAPGKGLEWVSDIDPTGSKTDYADSVKGRFTISRDNSKNTLYLQMNSLRAEDTAVYYCARDLMVYGFDYWGQGTLVTVSS
VL: EIVLTQSPGTLSLSPGERATLSCRASQSVSSSYLAWYQQKPGQAPRLLIYGASSRATGIPDRFSGSGSGTDFTLTISRLEPEDFAVYYCQQSYSYPVTFGQGTKVEIKR
notes: also called FS30-10 in mAb^2 format
- DO11.10-hCD137 T cell activation assay EC50 (nM), crosslinked [1]: 10.2 nM
- fold specificity for CD137 over TNFRSF1A, TNFRSF1B, GITR, NGFR and CD40 [2]: ~1000 fold

Continued, values first:

- DO11.10-hCD137 T cell activation assay EC50 (nM), crosslinked [1]: 5.5 nM
- fold specificity for CD137 over TNFRSF1A, TNFRSF1B, GITR, NGFR and CD40 [2]: ~1000 fold
B2: FS20-22-49AA/FS30-35 (bispecific antibody, human IgG1, kappa, L234A L235A, V domains shown)
VH: EVQLLESGGGLVQPGGSLRLSCAASGFTFSAYNIHWVRQAPGKGLEWVSDISPYGGATNYADSVKGRFTISRDNSKNTLYLQMNSLRAEDTAVYYCARNLYELSAYSYGMDYWGQGTLVTVSS
VL: B1 VL with S94Y, Y95S, Y96S, V98I
notes: also called FS30-35 in mAb^2 format

- DO11.10-hCD137 T cell activation assay EC50 (nM), crosslinked [1]: 9.5 nM
B5: FS20-22-49AA/FS30-35 variant, Methionine (100F) to H (bispecific antibody, V domains shown)
VH: B2 VH with M110H
VL: B1 VL with S94Y, Y95S, Y96S, V98I

- binding result [5]: binds
- binding result [6]: binds
- binding result [7]: binds
- binding result [8]: binds
- binding result [9]: binds
B8: FS20-22-49AA/FS30-15 (bispecific antibody, human IgG1, kappa, L234A L235A, V domains shown)
VH: EVQLLESGGGLVQPGGSLRLSCAASGFTFSGSGMSWVRQAPGKGLEWVSIIYSTNGDTDYADSVKGRFTISRDNSKNTLYLQMNSLRAEDTAVYYCARDFYDIANYYAFDYWGQGTLVTVSS
VL: B7 VL with S92A, S94Y, Y95D, V97I
notes: also called FS30-15 in mAb^2 format

- Activity of non-crosslinked mAbs at 100 nM (hIL-2 pg/ml) [10]: 532 pg/mL
- EC50 (nM), hIL-2 release, primary human CD8+ T cell activation assay, crosslinked mAb [10]: 1 nM
- Emax (hIL-2 pg/ml), crosslinked mAb [10]: 1510 pg/mL
B9: G1AA/FS30-6 (antibody, human IgG1, kappa, L234A L235A, V domains shown)
VH: EVQLLESGGGLVQPGGSLRLSCAASGFTVSYYSISWVRQAPGKGLEWVSDIYSYYGYTDYADSVKGRFTISRDNSKNTLYLQMNSLRAEDTAVYYCARVSYGGQAFDYWGQGTLVTVSS
VL: B7 VL with S92Y, Y93D, S94D
